# Measurements published in patent US20230257479A1 (Genmab, published 2023).
# Where a chain is given by its changes, count along the chain named. In names and notes the source's numbering stands.
# B1: bsIgG1-huCD3-H101G-FEALx5T4-207-FEAR (bispecific antibody)
# heavy 1: not shown
# light 1: not shown
# heavy 2: QVQLQQWGAGLLKPSETLSLTCAVYGGSFSGYYWTWIRQPPGKGLEWIGEIDHSESTNYNPSLKSRVTISVDTSKNQFSLKLSSVTAADTAVYYCAGWFGELYHYYYGMDVWGQGTTVTVSSASTKGPSVFPLAPSSKSTSGGTAALGCLVKDYFPEPVTVSWNSGALTSGVHTFPAVLQSSGLYSLSSVVTVPSSSLGTQTYICNVNHKPSNTKVDKRVEPKSCDKTHTCPPCPAPEFEGGPSVFLFPPKPKDTLMISRTPEVTCVVVAVSHEDPEVKFNWYVDGVEVHNAKTKPREEQYNSTYRVVSVLTVLHQDWLNGKEYKCKVSNKALPAPIEKTISKAKGQPREPQVYTLPPSREEMTKNQVSLTCLVKGFYPSDIAVEWESNGQPENNYKTTPPVLDSDGSFFLYSRLTVDKSRWQQGNVFSCSVMHEALHNHYTQKSLSLSPG
# light 2: not shown
# notes: also called CD3x5T4 bispecific antibody
# B2: bsIgG1-huCD3-H101G-FEALx5T4-H8-FEAR (bispecific antibody)
# heavy: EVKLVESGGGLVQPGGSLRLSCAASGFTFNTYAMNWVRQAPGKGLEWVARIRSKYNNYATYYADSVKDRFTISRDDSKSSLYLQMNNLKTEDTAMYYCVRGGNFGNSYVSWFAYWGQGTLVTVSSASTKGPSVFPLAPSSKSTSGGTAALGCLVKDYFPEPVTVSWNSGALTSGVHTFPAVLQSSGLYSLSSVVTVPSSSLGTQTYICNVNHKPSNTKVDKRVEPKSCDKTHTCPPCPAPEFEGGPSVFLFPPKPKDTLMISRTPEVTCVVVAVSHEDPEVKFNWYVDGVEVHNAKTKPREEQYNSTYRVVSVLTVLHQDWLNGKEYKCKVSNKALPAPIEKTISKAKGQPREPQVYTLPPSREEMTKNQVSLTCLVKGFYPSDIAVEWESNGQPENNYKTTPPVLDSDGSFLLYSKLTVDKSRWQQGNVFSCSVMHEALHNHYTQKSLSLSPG
# light: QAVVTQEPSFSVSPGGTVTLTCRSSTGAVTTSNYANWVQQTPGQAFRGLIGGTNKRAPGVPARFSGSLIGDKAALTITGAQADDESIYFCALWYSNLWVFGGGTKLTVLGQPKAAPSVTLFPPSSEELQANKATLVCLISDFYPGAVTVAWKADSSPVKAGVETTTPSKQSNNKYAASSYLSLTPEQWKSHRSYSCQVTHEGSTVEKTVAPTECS
# VH: EVQLQQSGPDLVKPGASVKISCKASGYSFTGYYMHWVKQSHGKSLEWIGRINPNNGVTLYNQKFKDKAILTVDKSSTTAYMELRSLTSEDSAVYYCARSTMITNYVMDYWGQVTSVTVSS
# VL: SIVMTQTPTFLLVSAGDRVTITCKASQSVSNDVAWYQQKPGQSPTLLISYTSSRYAGVPDRFIGSGYGTDFTFTISTLQAEDLAVYFCQQDYNSPPTFGGGTKLEIK
# notes: Fab-arm exchange product
# B3: IgG1-5T4-106-FEAR (antibody, V domains shown)
# VH: EVQLVQSGAEVKKPGESLKISCKGSGYRFTSYWIGWVRQMPGKGLEWMGIIYPGDSDARYSPSFQGQVTISADKSISTAYLQWSSLKASDTGMYYCARSVLFDYWGQGTLVTVSS
# VL: AIQLTQSPSSLSASVGDRVTITCRASQGISSALAWYQQKPGKAPKLLIYDVSNLESGVPSRFSGSGSGTDFTLTISSLQPEDFATYYCQQFNSYPHTFGQGTKLEIK
# notes: Monospecific, bivalent human IgG1 kappa with L234F, L235E, D265A, K409R (FEAR)
# B4: bsIgG1-huCD3-H101G-FEALx5T4-085-FEAR (bispecific antibody)
# heavy: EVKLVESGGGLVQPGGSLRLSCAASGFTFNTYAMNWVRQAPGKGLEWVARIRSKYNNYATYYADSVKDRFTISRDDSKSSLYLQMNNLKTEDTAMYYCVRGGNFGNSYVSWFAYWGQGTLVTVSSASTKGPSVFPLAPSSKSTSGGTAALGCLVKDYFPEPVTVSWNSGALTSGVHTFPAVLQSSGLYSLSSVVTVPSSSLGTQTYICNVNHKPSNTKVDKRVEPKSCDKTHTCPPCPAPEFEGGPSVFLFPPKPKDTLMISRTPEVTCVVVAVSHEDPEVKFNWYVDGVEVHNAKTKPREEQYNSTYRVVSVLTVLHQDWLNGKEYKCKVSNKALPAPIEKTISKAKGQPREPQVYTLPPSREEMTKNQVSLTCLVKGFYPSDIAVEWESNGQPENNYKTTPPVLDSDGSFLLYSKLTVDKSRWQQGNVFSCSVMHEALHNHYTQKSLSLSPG
# light: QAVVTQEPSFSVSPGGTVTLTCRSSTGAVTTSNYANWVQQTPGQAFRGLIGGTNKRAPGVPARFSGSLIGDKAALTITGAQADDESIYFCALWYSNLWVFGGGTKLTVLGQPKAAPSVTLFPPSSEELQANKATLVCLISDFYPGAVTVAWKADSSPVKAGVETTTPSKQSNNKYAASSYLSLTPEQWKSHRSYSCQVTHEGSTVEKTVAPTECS
# VH: EVQLLESGGGLVQPGGSLRLSCAASGFTFSSYAMSWVRQAPGKGLEWVSAISGSGGSTYNADSVKGRFTIFRDNSKNTLYLHMNSLRAEDTAVYYCARDPGYNNVEYLDHWGQGTLVTVSS
# VL: B3 VL with V51A, N53S, H96L, Q100G, L104V
# notes: Fab-arm exchange product
# Key:
# [1] = molecular target: T1, full length cynomolgus monkey 5T4 on transfected HEK-293 cells (cynomolgus monkey, UniProt Q4R8Y9 35-420); assay: flow cytometry, HEK-293 cells transfected with cynomolgus monkey 5T4, FITC secondary [I)A]
# T1 construct: Uniprot Q4R8Y9; residues 1-34 are the signal peptide; also called cynomolgus 5T4
# T1 sequence: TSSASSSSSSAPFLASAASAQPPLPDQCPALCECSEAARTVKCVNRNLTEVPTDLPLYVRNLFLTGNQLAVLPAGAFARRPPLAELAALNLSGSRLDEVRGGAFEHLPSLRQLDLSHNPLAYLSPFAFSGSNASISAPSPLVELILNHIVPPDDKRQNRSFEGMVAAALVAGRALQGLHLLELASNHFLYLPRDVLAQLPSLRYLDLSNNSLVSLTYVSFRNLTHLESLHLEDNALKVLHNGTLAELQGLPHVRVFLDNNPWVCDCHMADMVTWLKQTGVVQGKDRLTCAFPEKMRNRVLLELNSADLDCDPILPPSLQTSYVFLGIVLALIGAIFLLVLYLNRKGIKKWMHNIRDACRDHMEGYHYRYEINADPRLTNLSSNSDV
# [2] = molecular target: T2, full length human 5T4 (SEQ ID NO: 1) on cells (human, UniProt Q13641 32-420); assay: flow cytometry, HEK-293 cells transfected with human 5T4, PE secondary [II)A]
# T2 construct: Uniprot Q13641; residues 1-31 are the signal peptide; Used both for transfected HEK-293 cells and for 5T4-expressing human tumor cell lines
# T2 sequence: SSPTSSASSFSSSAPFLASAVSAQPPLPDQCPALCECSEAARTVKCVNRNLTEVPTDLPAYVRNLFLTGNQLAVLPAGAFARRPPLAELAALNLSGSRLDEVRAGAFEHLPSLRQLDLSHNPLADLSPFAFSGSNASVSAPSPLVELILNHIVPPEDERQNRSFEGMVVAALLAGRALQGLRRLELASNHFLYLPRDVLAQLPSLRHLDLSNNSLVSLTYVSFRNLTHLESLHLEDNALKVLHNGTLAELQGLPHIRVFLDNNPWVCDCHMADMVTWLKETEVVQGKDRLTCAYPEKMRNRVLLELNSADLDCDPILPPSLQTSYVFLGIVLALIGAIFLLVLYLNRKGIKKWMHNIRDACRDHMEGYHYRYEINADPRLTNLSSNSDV
# [3] = molecular target: T2, full length human 5T4 (SEQ ID NO: 1) on …; assay: flow cytometry, SK-GT-4 cells, R-PE secondary
# [4] = molecular target: T2, full length human 5T4 (SEQ ID NO: 1) on …; assay: flow cytometry, MDA-MB-231 cells, FITC secondary [I)A]
# [5] = molecular target: T2, full length human 5T4 (SEQ ID NO: 1) on …; assay: flow cytometry, SCC-9 cells, R-PE secondary
# [6] = molecular target: T1, full length cynomolgus monkey 5T4 on …; assay: flow cytometry, HEK-293 cells transfected with cynomolgus monkey 5T4, PE secondary [II)A]
# [7] = molecular target: T2, full length human 5T4 (SEQ ID NO: 1) on …; assay: flow cytometry, OE33 cells, R-PE secondary
# [8] = molecular target: T2, full length human 5T4 (SEQ ID NO: 1) on …; assay: flow cytometry, HeLa cells, PE secondary [II)A]
# [9] = molecular target: T2, full length human 5T4 (SEQ ID NO: 1) on …; assay: flow cytometry, HeLa cells, FITC secondary [I)A]
# [10] = molecular target: T2, full length human 5T4 (SEQ ID NO: 1) on …; assay: flow cytometry, MDA-MB-231 cells, PE secondary [III)A]
# [11] = molecular target: T2, full length human 5T4 (SEQ ID NO: 1) on …; assay: flow cytometry, NCI-H292 cells, R-PE secondary
# [12] = molecular target: T2, full length human 5T4 (SEQ ID NO: 1) on …; assay: flow cytometry, FaDu cells, R-PE secondary
# [13] = molecular target: T1, full length cynomolgus monkey 5T4 on …; assay: flow cytometry, HEK-293 cells transfected with cynomolgus monkey 5T4, FITC secondary [I)D]
# [14] = molecular target: T2, full length human 5T4 (SEQ ID NO: 1) on …; assay: flow cytometry, HEK-293 cells transfected with human 5T4, FITC secondary [I)D]
# [15] = molecular target: T3, human 5T4ECDHis (mature protein of SEQ ID NO: 99) (human, UniProt Q13641 32-355); assay: BLI cross-block; competitor (immobilised): IgG1-5T4-H8-FEAR
# T3 construct: ECD of human 5T4 (aa 1-355 of Uniprot Q13641) with C-terminal His tag; residues 1-31 are the signal peptide; also called ECD of human 5T4 with a C-terminal His tag
# T3 sequence: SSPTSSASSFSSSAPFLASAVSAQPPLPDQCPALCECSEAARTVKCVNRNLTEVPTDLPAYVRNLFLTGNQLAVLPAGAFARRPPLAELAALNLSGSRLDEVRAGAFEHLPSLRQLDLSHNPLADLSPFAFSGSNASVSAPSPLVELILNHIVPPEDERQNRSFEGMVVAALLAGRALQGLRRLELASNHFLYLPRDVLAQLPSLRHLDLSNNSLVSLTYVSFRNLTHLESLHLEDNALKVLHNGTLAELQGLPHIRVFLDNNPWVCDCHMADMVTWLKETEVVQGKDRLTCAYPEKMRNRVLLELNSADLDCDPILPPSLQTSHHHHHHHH
# [16] = molecular target: T3, human 5T4ECDHis (mature protein of SEQ …); assay: BLI cross-block; competitor (immobilised): IgG1-5T4-059-FEAR
# [17] = molecular target: T2, full length human 5T4 (SEQ ID NO: 1) on …; assay: flow cytometry, HEK-293 cells transfected with human 5T4, PE secondary [II)D]
# [18] = molecular target: T3, human 5T4ECDHis (mature protein of SEQ …); assay: BLI cross-block; competitor (immobilised): IgG1-5T4-A1-F405L
# [19] = molecular target: T3, human 5T4ECDHis (mature protein of SEQ …); assay: BLI cross-block; competitor (immobilised): IgG1-5T4-A3-F405L
# [20] = molecular target: T3, human 5T4ECDHis (mature protein of SEQ …); assay: BLI cross-block; competitor (immobilised): IgG1-5T4-076-FEAR
# [21] = molecular target: T3, human 5T4ECDHis (mature protein of SEQ …); assay: BLI, antibody on anti-human IgG Fc Capture biosensor, antigen in solution
# [22] = molecular target: T3, human 5T4ECDHis (mature protein of SEQ …); assay: BLI cross-block; competitor (immobilised): IgG1-5T4-127-FEAR
# [23] = molecular target: T1, full length cynomolgus monkey 5T4 on …; assay: flow cytometry, HEK-293 cells transfected with cynomolgus monkey 5T4, PE secondary [II)D]
# [24] = molecular target: T3, human 5T4ECDHis (mature protein of SEQ …); assay: BLI cross-block; competitor (immobilised): IgG1-5T4-085-FEAR
# [25] = molecular target: T3, human 5T4ECDHis (mature protein of SEQ …); assay: BLI cross-block; competitor (immobilised): IgG1-5T4-106-FEAR
# [26] = molecular target: T3, human 5T4ECDHis (mature protein of SEQ …); assay: BLI cross-block; competitor (immobilised): IgG1-5T4-226-FEAR
# [27] = molecular target: T3, human 5T4ECDHis (mature protein of SEQ …); assay: BLI cross-block; competitor (immobilised): IgG1-5T4-207-FEAR
# [28] = molecular target: T2, full length human 5T4 (SEQ ID NO: 1) on …; assay: flow cytometry, HEK-293 cells transfected with human 5T4, PE secondary [II)F]
# [29] = molecular target: T1, full length cynomolgus monkey 5T4 on …; assay: flow cytometry, HEK-293 cells transfected with cynomolgus monkey 5T4, PE secondary [II)F]
binder,measurement,setting,value
B1,EC50 (read off the curve),[1],~0.1 µg/mL
same,EC50 (read off the curve),[2],~0.06 µg/mL
same,EC50 (read off the curve),[3],~0.08 µg/mL
same,EC50 (read off the curve),[4],~0.1 µg/mL
same,EC50 (read off the curve),[5],~0.08 µg/mL
same,EC50 (read off the curve),[6],~0.03 µg/mL
same,EC50 (read off the curve),[7],~0.08 µg/mL
same,EC50 (read off the curve),[8],~0.04 µg/mL
same,EC50 (read off the curve),[9],~0.04 µg/mL
same,EC50 (read off the curve),[10],~0.04 µg/mL
same,EC50 (read off the curve),[11],~0.03 µg/mL
same,EC50 (read off the curve),[12],~0.06 µg/mL
B2,EC50 (read off the curve),[13],~0.1 µg/mL
same,binding result,[14],binds
B3,corrected association response,[15],-0.01 nm
same,corrected association response,[16],0.01 nm
same,EC50 (read off the curve),[17],~0.01 µg/mL
same,corrected association response,[18],0.85 nm
same,corrected association response,[19],0.57 nm
same,corrected association response,[20],-0.02 nm
same,Kd,[21],5.5 nM
same,koff,[21],0.0012 s⁻¹
same,kon,[21],210000 M⁻¹ s⁻¹
same,corrected association response,[22],-0.01 nm
same,binding result,[23],binds
same,corrected association response,[24],-0.01 nm
same,corrected association response,[25],-0.02 nm
same,corrected association response,[26],-0.02 nm
same,corrected association response,[27],-0.01 nm
B4,EC50 (read off the curve),[28],~0.5 µg/mL
same,EC50 (read off the curve),[29],~0.4 µg/mL
